The values below come from a protein production outcome set (Wang et al. 2014).

This data set can be described thus: label from the status in PepcDB records.
Take “MRAFPFFRPVLAQLMKHRVAQESTRRWLDRIIQIIKYAYCQKLRRHFCQATLWKMIQLIVNGQSQLVPSPDSGTDSGTTNDARLNIRQLLEHMGLQGKRIAVERNGEIVPRSQFDQPMLASGDKLEIVVAVGGGLEHHHHHH”: the protein production result is on record as “failed”.

For “MRASSSQGTPMNTALHDNREVVTVCLQHKVLDGSPGTPAAQPPRWKQALLTYLVICPMTMVIPQLLAPLFARFPQLGGVITGNLIVNLFVILPVVFYIMPWVTRRCANWLRG”, the protein production result is “failed”.

Take “MRCPGCGAAIQFDDPKKPGYIPREVFEKRLEEGKEILCQRCFRMKHYGKLEPVEFDWDFKNQLKSYLGGFDVVVWVIDIFDFEGTYREDIAEILKGKRVIYVINKIDLLPRAVTVKEIKEWVKKRIKTKNTDDIRIVSAEKNFGLTSLVKYLSRLTDKALVVGVTNVGKSSLLNKICTHENTISPFPGTTLGILKRKVKEANLYLYDTPGIMTSDRILDLLDPECQKRVLPREELSRKTFKPDNGRTIFMGGLCRFDIHFETEKNPIFLLFSSKEVTFHETRRERADELMRNRLGDLLIPPCSKTKFENFKWKRETFTLKEGEELAVAGLGWMSVRRGPFTVEVTVPDSVKLVVREALVNPKRLEHHHHHH”: the protein production entry is “not failed”.

For the sequence “MRCTRLEARRMLSHINENQQPQMVDISEKAVSDRRAVAEALIELPPVFQAYVQGGDLFLKKGPVVQTAIIAGTMAVKRTAEVIPFCHPLPITSCRFETDIESQESGLRIRLRCEVKTCDRTGVEMESLHGVAIAALTIYDMAKALSPHIVIREVRLLAKSGGKKTLGQYPLYGLVLTGGQSQRMGQAKALLDYYGEPHAQYLYNLLAQSCEQVFLSAQPNQWQGTPLADLPTLPDILPQIGPIAGILTALRAYPQVNWLVVACDLPYLTTETLAPLLHHYREDVVATCYHHPQEGFPEPLCAIYTPQALPVFEAAYAEGIYCPVKILQRSPCQRIAPPQPTITANINTPEEYHEALHHVRRP”, the protein production entry is listed as “failed”.

Consider “MRDFLKLLKKHDELKIIDTPLEVDLEIAHLAYIEAKKPNGGKALLFTQPIRKEHDQIKTFGMPVLMNAFGSFKRLDLLLKTPIESLQQRMQAFLHFNAPKNFTEGLKVLKDLWDLRHIFPKKTTRPKDLIIKQDKEVNLLDLPVLKTWEKDGGAFITMGQVYTQSLDHQKKNLGMYRLQVYDKNHLGLHWQIHKDSQLFFHEYAKAKVKMPVSIAIGGDLLYTWCATAPLPYGIYELMLYGFMRGKKARVMPCLSNSLSVPSDCDIVIEGFVDCEKLELEGPFGDHTGYYTPIEPYPVLEVKTISYKKDSIYLATVVGKPPLEDKYMGYLTERLFLPLLQMNAPNLIEYYMPENGVFHNLILAKIHTRYNAHAKQVMHAFWGVGQMSFVKHAIFVNEDAPNLRDTNAIIEYILENFSKENALISQGVCDALDHASPEYAMGGKLGIDATSKSNTPYPTLLNDSALLALLQDKMQNIVLLKQYYPHTRNPICVISVEKKDKSVIELAKNLLGFEEHLRIVIFVEHASNDLNNPYMLLWRIVNNIDARRDILTSKHCFFIDATNKGVMDKHFREWPTETNCSMEVIENLKKKGLLKDFETLNQKFHLTHSFSTHKEDL”, for which the protein production entry is on record as “failed”.

With “MRDHVEIGIGREARRTYSLDDISVVSSRRTRSSKDVDTTWHIDAYKFDLPFMNHPSDALASPEFVIEMGKQGGLGVINAEGLWGRHADLDEAIAKVIAAYEEGDQAAATRTLQELHAAPLDTELLSERIAQVRDSGEIVAVRVSPQNVREIAPIVIKAGADLLVIQGTLISAEHVNTGGEALNLKEFIGSLDVPVIAGGVNDYTTALHMMRTGAVGIIVGGGENTNSLALGMEVSMATAIADVAAARRDYLDETGGRYVHIIADGSIENSGDVVKAIACGADAVVLGSPLARAEEAAGKGYFWPAVAAHPRFPRGVVTESVDLDEAAPSLEQILHGPSTMPWGVENFEGGLKRALAKCGYTDLKSFQKVSLHVN”, the protein production result is on record as “not failed”.

Consider “MRDIPLLIPILLILFVSLGLARVKTILVVGAFSLFFVYGYLKGENIGTPRRRIEVNDDVFSVMLILSVIIILIQIANLRGIPLLHPHLRTHLNPKLTGLTYFLGLPSSVYLIIRGKKLGFLYPLMVALYAYRTPVLVALIALTLPYLEDMKKGKKAVEIGVIGIFLLFLISYFRGSLSFLTRIQGTTSVLDVIVKRCSVVGFYKGELQLAGVKSYIFGGLGPRTMIARYLGIPGVTITATLIGGMYLDFGLLSSLEMLLLGFYYGIMKKLRSDVGRSFYYSTLSYGIVGVETGILDLPVYLMILVGLLIAWREFDGNLRKDIRRIISWISSSSNNW”, for which the protein production entry is “failed”.

Take “MREEQVSDCGSITLEEWNGSSSTKLFKTATITASSSLSIQRSANRFNHVWRRVLQAFVPEASGFPGSVTPDYVGFQLWDTLQGLSTYTKMMLSTQALLSAIGVGEKSATVIGATFQWFLRDFTGMLGGILFTFYQGSNLDSNAKMWRLVADLMNDIAGVASGATRAALTQHFALQDNAADISAKEGSQETMATMMGMSLGMLLARFTSGNPMAIWLSFLSLTVFHMYVLSPEQVSSMEGVLPLWATSLRSTNSKPLHKRVQLGVRVSSLPRLDMLQLLNGVGASSYKNAKYLLAHIKGNVSVILHKDSKPADVLKSYIHAIVLANLMEKSTSFYSEGEAWIDKHYDELLHKVRLNH”: the protein production result was “failed”.

Take “MREHLKLFSLIFSYPDEDKLGKAIALAEGIGLTEIAQTLKQVDIEALQVEYTSLFISSHPSVPCPPYQSYFEEGSVYGKASLRAAELYSKYGLNYVYESEPPDHISVELEFLSMNPELLSDFRDWFLEFAKCVEEKSEIYATFARAFRKFLEKPSKVQS”: the protein production entry was “not failed”.

Regarding “MRENIIEFIPKEKPCSYLKEERSLFRYFHIEECSSDLYQALLERGWRRFGKYFFVPICKNCKACLSVRKPLANLEFSRSFKRVLSKNRQTGLVIQRPMITEAHLKLYDRYHRRMSEKKGWEYSPITMESYYEMFVEGSGEFGYEFAYYRDERLVGIALVDILERSLSAVYCFYDHDYSDFSLGIFSILKQLELAKRLKIDYFYPGYWIKNHPSMGYKERFAPYEILRNEPDIDALPEWSLQGENE”, the protein production result is listed as “failed”.

Regarding “MREQLRAHGIGPNDIHTLLLSHFHADHIAGLRDFPRARILASEPGWRAVRGLSGLAAVRQAFLPGLLPPDMESRLSFVEAFALQALPADLAPFSHGRDVSGCGEVFVVDLPGHAAGHLGAFVLGDAGWTLLASDAAWSEEGYREMRGPSELSFLVQHSRRSYYDTLARLHALHRGGRVDILLTHQEETPCLEHHHHHH”, the protein production entry is recorded as “failed”.

Turning to “MRERFDVVIAGAGPAGAQCARDLAERNYEVLVLESEPEDGFPRQSNKSTAGTFMSAMTGFAIPDDVVMNYTDNVVLESPNDHYVRNQTGAVLEFAEFKQWLVSEGRDKGATYRFDSRVSAPIMENGEIVGVRYDGDEEVYADIVIDATGPAAPLAKELDVCNLQRNHQAIGVEYEFEGVEVDHDDYADLRDAMMLRLDHDLAPGGYSWIFHTGEDTAKVGLCYIQNGSHQKYAKDGMGIDDYLEYWLDSDPRFDDAERIEGTQAHRGSAHIQPPDSMSTDNFMAIGDTVPTVDPLWGEGIHKGMKSARAAAATADSALKPDEPDTSAENLSVYDQLWHSEVAPKHNARLMMTELLYLAPNERYDQLMDDLRSTGQDTLRQINGGDRRAIAKLTHLSDMPILVEYARRRLDILEHHHHHH”, the protein production entry is reported as “failed”.

In the case of “MRERKKYGKHIPKSLSSKINKRKLIQKNICTNYKTIKIIDIYENLPYNQLNNGRTKIKEIILANDVLVVLLISGISRAYNMINGEFLCEINPNNFSVVHTIVYNSYNNTLIIAYASFPAHLQCKVIDCNDLKHGITNSSKLGILFGT”, the protein production result is “failed”.

Regarding “MREVKLVTFDVWNTLLDLNIMLDEFSHQLAKISGLHIKDVANAVIEVRNEIKKMRAQASEDPRKVLTGSQEALAGKLKVDVELVKRATARAILNVDESLVLEGTKEALQFVKERGLKTAVIGNVMFWPGSYTRLLLERFGLMEFIDKTFFADEVLSYKPRKEMFEKVLNSFEVKPEESLHIGDTYAEDYQGARKVGMWAVWINQEGDKVRKLEERGFEIPSIANLKDVIELISKT”, the protein production entry is on record as “not failed”.

As for “MRFDKSCQARAPSAPDGPGVLRFTIFRGEAKKRKAAVSVAGRFCAVACFLRLGSAGLSRCPCYFSPMLERRIVVAVPARDEGAGVVATLRALAAQEGAPPFQTLLLVNNSRDDTAAQARAFARQMPGFRLQVEEVALPPREANVVGARRAALDWAAALAGSDGIIVSTDADTQAAPDWLAALVQPLCANRAVQASAGRILLRATERAALPEPVRRTYLLDTGYRDAASRLRARVLPDPFDPAPRHWQHFGASLALRVSAYRAVGGVPQVPCLEDLALVRALARADLPLRHTPRARVYTSARLCGRVPVGLSTQLGEWARGPQHWRVPGGAEVLRLAQAEAALRRSWQARRLAPKLTAQWLTSEAALGAALHAPRWGLALERAHEVREAEGRWQRTFAPIPVWDALQEVRALLSTLPEERPLTAEVCAP”, the protein production entry is reported as “failed”.

As to “MRFFYFSGEIMEKILVIRNDKLGDFMQAWPAFAMLKASNPKLKLTALVPSYTASLAEICPFIDHVIIDSKKNDKTDFKRLVQEIKAQQFDGMISFFSNTHNGKLAWKSGIKYRLAPATKWVQILYNHRLTQRRSRSEKSEAEYNQDLVRTFLQKHNMPVVEPKPPYLIFEKSAVENQRVFLQENLGLSANKKWIFVHSGSGGSATNLSLAQYADLIKGLLAEFDCNVVLTAGPGESEKAYELANLVNDLRVAIYDKNKGLVDFAHSLACADLFIAGSTGPLHLSSAFNIPTIGFYPNSRSSQPRRWKPINDVDKHIAFCPPAGKESQMNLELISIDNALAEISLFIRNMWQTSNNI”, the protein production result is recorded as “failed”.

As for “MRFGPVALSAAKGALLAHSRKAPGWTLAKGTRLGDEDLALLAGLGVAEVVVARLDPGDVHEDEAAARVAAVLLGPGLTLGDAFTGRANLFAGGDGLLRLDAARFDRLNALCEGLTVATLPPFAKVAPRQMVATVKIIPFALPETVIAQAEALLAGAPALEVALFRPMRLALIQTHLPETAGKMLDKTASVTAGRMAALGGGLTVDRRCPHDTRALAACLSAVSAEKDVDLIAVAGASAIVDRGDVIPAAITRAGGRVDHLGMPVDPGNLILLGELAGRVVLGLPGCARSPAINGFDWVLDRLCAGLAVGGADLMAMGVGGLLKDTTARTQPRMAAVTHPSPAAPPRLGALVLAAGLSRRMGGVNKLLLDWRGKPLVAHAVDTVLAAGPAAVAVVIGHQGKAVRAALEGRAIALVENPDPGRGLGSSLKRGLAALPADLDGVIVCLGDMPGLTPRLLSRLIAAFAPLEGRAICLPTFGGRRGNPVLFAARFLPEMMEITGDIGARPVIAAHPDQTCEVAMDALAEGASVLMDVDTPEAAKALLSAGGLEHHHHHH”, the protein production result is “failed”.

For “MRFHFFPQPLDRAAWSVFLVALVLTLLLVWGGDRTQAQVREFSWQNRDVGASDRAFILSFNRLMDWSSVATHLRIEPALEGKASWSGRRFAYTLTQPIPYGQTFKVSLEDAVSVPQGKPIKPFQGQFRSRDRVLVYLGSGAEEGRLILYNLTLQQKIFLTPPNLRVFDFQPYPAGDRILFSAGERGEQMGFDPQLYIVTTGLYFNAPDTPRRQAHPAGEISLILDNSEYQNLRFQLANDGSKIVVQRVNRLQPADSSLWLLDENFQPRRLNQAAAGEFRIAPDNQHLIIAQGQGLAIVPLEATNGESNFDFLPQYGMVLDFSRDGRQVAAVKFNPNFSRSLYVVDIFGEHREVLTINGSIIAGQFDPSGQFLYVILTRIEGEGNYREVPYLALLDLKTKELFKLKDFDPQQELYLSLAPDGRTLAIDAVEGREIPAEVDHGDLYSETAPVTPSPRDLVELPPAPPGSPLPPRQLPAQEHQIWLLPLKLDQDKIVVGMPEPLAPGLQARWLP”, the protein production entry is reported as “failed”.

On to “MRFPFCTGGKTFVLWDVEVCPIPDGLGPHDVFSNIKRVLMDNGYRGDVSTTPYTDLTKSNGEFNGIPVRHLSAGDRDARLEVYMIDLYSCVVKEDGPLNLMLFVGDISSRSKDFFRVFRLLQSSSSDSSVPLSLTQDGICKALTFGEEVIIRECGERRKVPNSD”, for which the protein production result is on record as “not failed”.
